Patent US20100143254A1

Molecular target: human FcRn (human) (UniProt P55899)
Test: SPR (BIAcore) steady state, immobilized IgG, human FcRn 16-2860 nM, pH 6.0

Kd	Substance
2.68 µM	MEDI-524 (wild type) (antibody)
3.03 µM	MEDI-524 G385S + Q386I (antibody)
15.9 µM	MEDI-524 L309N (antibody)
11.3 µM	MEDI-524 R255V (antibody)
